Experiments:
[1] = tested on: FUS with all 15 RGG3-PY arginines to alanine; assay: fluorescence anisotropy or EMSA (method not given); settings: poly(ADP-ribose); length not given in material; EMSA and anisotropy: 50 mM Tris-HCl pH 7.5, 100 mM KCl, 10 mM beta-mercaptoethanol, 0.1 mg/mL BSA, 2 mM MgCl2, 23 C, 30 min; single-molecule: 20 mM Tris-HCl pH …
FUS RGG3-PY fragment = assay: fluorescence anisotropy; settings: poly(ADP-ribose); length not given in material; EMSA and anisotropy: 50 mM Tris-HCl pH 7.5, 100 mM KCl, 10 mM beta-mercaptoethanol, 0.1 mg/mL BSA, 2 mM MgCl2, 23 C, 30 min; single-molecule: 20 mM Tris-HCl pH …
[RGRGG]5 peptide = EMSA; settings: poly(ADP-ribose), 16 ADP-ribose units; no base sequence; EMSA and anisotropy: 50 mM Tris-HCl pH 7.5, 100 mM KCl, 10 mM beta-mercaptoethanol, 0.1 mg/mL BSA, 2 mM MgCl2, 23 C, 30 min; single-molecule: 20 mM Tris-HCl pH …
[KGYGG]5 peptide = EMSA; settings: poly(ADP-ribose), 16 ADP-ribose units; no base sequence; EMSA and anisotropy: 50 mM Tris-HCl pH 7.5, 100 mM KCl, 10 mM beta-mercaptoethanol, 0.1 mg/mL BSA, 2 mM MgCl2, 23 C, 30 min; single-molecule: 20 mM Tris-HCl pH …
[KGKGG]5 peptide = EMSA; settings: poly(ADP-ribose), 16 ADP-ribose units; no base sequence; EMSA and anisotropy: 50 mM Tris-HCl pH 7.5, 100 mM KCl, 10 mM beta-mercaptoethanol, 0.1 mg/mL BSA, 2 mM MgCl2, 23 C, 30 min; single-molecule: 20 mM Tris-HCl pH …
[RGYGG]5 peptide = EMSA; settings: poly(ADP-ribose), 16 ADP-ribose units; no base sequence; EMSA and anisotropy: 50 mM Tris-HCl pH 7.5, 100 mM KCl, 10 mM beta-mercaptoethanol, 0.1 mg/mL BSA, 2 mM MgCl2, 23 C, 30 min; single-molecule: 20 mM Tris-HCl pH …
[2] = target: T1, His-MBP-tagged PrLD (prion-like domain) of FUS (Fused in Sarcoma); assay: BLI
T1 chain: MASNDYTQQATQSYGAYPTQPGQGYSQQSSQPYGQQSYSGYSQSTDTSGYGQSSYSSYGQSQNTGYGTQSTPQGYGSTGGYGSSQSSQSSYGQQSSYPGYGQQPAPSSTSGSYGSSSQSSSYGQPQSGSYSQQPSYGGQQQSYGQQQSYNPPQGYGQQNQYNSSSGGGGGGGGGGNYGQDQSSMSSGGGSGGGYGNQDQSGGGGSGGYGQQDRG

[3] = target: T2, His-MBP-tagged PrLD (prion-like domain) of FUS (Fused in Sarcoma); assay: BLI; His-MBP-tagged PrLD (400 nM) immobilised on HIS1K (anti-His) biosensors; analyte in PBSA (PBS + 0.1% BSA), MBP-tagged CTRR at 0.4, 1, 2, 5 and 12 uM; association 600 s, dissociation 600 s; Octet RED96; association phase fitted to an exponential kinetic binding model; settings: both partners purified
T2 chain: T1 chain

AF488-PAR (anisotropy)
binding signal (fold weaker than wild-type FUS) [1]: 2.7 | binding signal (fold weaker than full-length FUS) (FUS RGG3-PY fragment): 3

Cy3-PAR 16-mer
Kd ([RGRGG]5 peptide): 0.8 µM | Kd ([KGYGG]5 peptide): 29 µM | Kd ([KGKGG]5 peptide): 24 µM | Kd ([RGYGG]5 peptide): 10 µM

B1: MBP-tagged CTRR (C-terminal RGG-rich region, RGG2-ZnF-RGG3-PY) of FUS (domain or fragment)
chain: RADFNRGGGNGRGGRGRGGPMGRGGYGGGGSGGGGRGGFPSGGGGGGGQQRAGDWKCPNPTCENMNFSWRNECNQCKAPKPDGPGGGPGGSHMGGNYGDDRRGGRGGYDRGGYRGRGGDRGGFRGGRGGGDRGGFGPGKMDSRGEHRQDRRERPY
modifications: MBP tag omitted. Limits are not printed: start taken just after the RRM (285-371), running to the C-terminus (RGG2-ZnF-RGG3-PY). Zn2+ in the RanBP2-type zinc finger. His-MBP tag omitted. Limits are not printed: 1-214 is the conventional FUS PrLD/low-complexity domain, and it includes Y177, which the paper places in the PrLD.
koff [2]: 0.00052 s⁻¹

B2: MBP-tagged CTRR (C-terminal RGG-rich region, RGG2-ZnF-RGG3-PY) of FUS (domain or fragment)
chain: B1 chain
modifications: MBP tag omitted. Limits are not printed: start taken just after the RRM (285-371), running to the C-terminus (RGG2-ZnF-RGG3-PY). Zn2+ in the RanBP2-type zinc finger. / His-MBP tag omitted. Limits are
Kd [3]: 1.37 µM

— article doi:10.1101/2025.07.03.659157, “Transient Poly(ADP-Ribose) Triggers FUS Condensation Hysteresis via a Prion-Like Mechanism” (bioRxiv, 2025)
